Data on two molecules can be found in publication PMC3320765 (Biochemistry, 2012).

For the assay, the target named is HIRA(1–405), untagged (HIRA WD repeats) (human, UniProt P54198 1-405). Put plainly: AUC.
Chain of HIRA(1–405), untagged (HIRA WD repeats) (P54198 1-405): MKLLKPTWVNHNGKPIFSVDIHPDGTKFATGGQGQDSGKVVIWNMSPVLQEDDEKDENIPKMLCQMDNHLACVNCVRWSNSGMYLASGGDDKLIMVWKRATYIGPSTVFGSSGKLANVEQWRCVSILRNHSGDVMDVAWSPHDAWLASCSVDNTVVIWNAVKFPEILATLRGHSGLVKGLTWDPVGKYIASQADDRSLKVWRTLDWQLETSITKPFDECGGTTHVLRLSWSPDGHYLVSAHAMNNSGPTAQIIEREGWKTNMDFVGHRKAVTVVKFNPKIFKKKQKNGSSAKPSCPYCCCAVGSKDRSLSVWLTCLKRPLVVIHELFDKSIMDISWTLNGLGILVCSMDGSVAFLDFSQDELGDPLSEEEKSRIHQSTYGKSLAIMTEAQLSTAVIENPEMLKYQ

B1: 6His-UBN1(41–175) (domain or fragment, human, UniProt Q9NPG3 41-175, looked up)
chain: AAAAVRITLTLFEPDHKRCPEFFYPELVKNIRGKVKGLQPGDKKKDLSDPFNDEEKERHKVEALARKFEEKYGGKKRRKDRIQDLIDMGYGYDESDSFIDNSEAYDELVPASLTTKYGGFYINSGTLQFRQASES
B1: binding was characterised by a dissociation constant (Kd) of 13.3 nM.

B2: 6His-UBN1(41–119) (domain or fragment, human, UniProt Q9NPG3 41-119, looked up)
chain: AAAAVRITLTLFEPDHKRCPEFFYPELVKNIRGKVKGLQPGDKKKDLSDPFNDEEKERHKVEALARKFEEKYGGKKRRK
B2 had a Kd of 6.5 nM.

What is called Kd is the constant that tells how readily two partners part at equilibrium. Lower therefore signals tighter binding.
